US20030157553A1 (published 2003)

Target: T1, phosphorylated β2-adrenergic receptor (agonist-activated) (UniProt P07550 1-413, limits assumed, phosphorylated (sites and kinase not stated for the experiment))
T1 construct: Phosphorylated form of the purified, reconstituted β2AR; also called P-β2AR
Test: agonist affinity shift assay, [125I]iodopindolol displacement by agonist with saturating (1 µM) purified arrestin, P-β2AR
Procedure: Agonist Affinity ShiftAssay—P-β₂AR or β₂AR (10-15 fmol/assay) was incubated in 0.25 ml of 10 mM Tris-HCl, pH 7.4, 100 mM NaCl (buffer A) containing 0.1 mg/ml bovine serum albumin in the presence of 65-75 fmol of [¹²⁵I] iodopindolol (NEN Life Science Products) and the indicated concentrations of arrestins and agonists for 60 min at 22° C. Samples were then cooled on ice and loaded at 4° C. onto 2 ml of Sephadex G-50 columns. Receptor-containing liposomes with bound radioligand were eluted with buffer A (between 0.6 and 1.5 ml), and radioactivity was quantitated in a liquid scintillation counter. Nonspecific binding was determined in the presence of 10 μM alprenolol. All experiments were repeated two to three times, and data are presented as means ±S.D.
It was recently reported that arrestin-receptor complex is similar to G protein-receptor complex in two respects: agonists have higher affinity for arrestin-receptor complex than for receptor alone, and only a fraction of the receptors forms such a high agonist affinity complex (HAC) even at saturating concentrations of arrestin (Gurevich et al. (1997) supra). The maximum percentage of the receptor in HAC gives a good estimate of the propensity of a given arrestin protein to bind tightly to the receptor (arrestin competency) Gurevich et al. (1997) supra)). […]

percentage of receptor in high agonist affinity complex (HAC) [%] | Binder
31 | wild type bovine β-arrestin (other, Full-length wild type from construct pBARR; also called wild type β-arrestin; bovine β-arrestin 1A) MGDKGTRVFKKASPNGKLTVYLGKRDFVDHIDLVEPVDGVVLVDPEYLKERRVYVTLTCAFRYGREDLDVLGLTFRKDLFVANVQSFPPAPEDKKPLTRLQERLIKKLGEHAYPFTFEIPPNLPCSVTLQPGPEDTGKACGVDYEVKAFCAENLEEKIHKRNSVRLVIRKVQYAPERPGPQPTAETTRQFLMSDKPLHLEASLDKEIYYHGEPISVNVHVTNNTNKTVKKIKISVRQYADICLFNTAQYKCPVAMEEADDTVAPSSTFCKVYTLTPFLANNREKRGLALDGKLKHEDTNLASSTLLREGANREILGIIVSYKVKVKLVVSRGGLLGDLASSDVAVELPFTLMHPKPKEEPPHREVPEHETPVDTNLIELDTNDDDIVFEDFARQRLKGMKDDKEEEEDGTGSPRLNDR
52 | β-arrestin-(Arg169→Glu) (other, Bovine β-arrestin point mutant made in pBARR) MGDKGTRVFKKASPNGKLTVYLGKRDFVDHIDLVEPVDGVVLVDPEYLKERRVYVTLTCAFRYGREDLDVLGLTFRKDLFVANVQSFPPAPEDKKPLTRLQERLIKKLGEHAYPFTFEIPPNLPCSVTLQPGPEDTGKACGVDYEVKAFCAENLEEKIHKRNSVRLVIEKVQYAPERPGPQPTAETTRQFLMSDKPLHLEASLDKEIYYHGEPISVNVHVTNNTNKTVKKIKISVRQYADICLFNTAQYKCPVAMEEADDTVAPSSTFCKVYTLTPFLANNREKRGLALDGKLKHEDTNLASSTLLREGANREILGIIVSYKVKVKLVVSRGGLLGDLASSDVAVELPFTLMHPKPKEEPPHREVPEHETPVDTNLIELDTNDDDIVFEDFARQRLKGMKDDKEEEEDGTGSPRLNDR
